Test results reported in PMC8893199, “A Cysteine Variant at an Allosteric Site Alters MIF Dynamics and Biological Function in Homo- and Heterotrimeric Assemblies” (Frontiers in Molecular Biosciences, 2022).

Molecular target: the molecule itself
Experiment: AUC; sedimentation velocity, Y99C MIF homotrimer at three loading concentrations, PBS, 20°C, 50,000 rpm, c(s) analysis in SEDFIT

B1: Y99C MIF homotrimer (natural protein, human, UniProt P14174 1-115, looked up)
chain: MPMFIVNTNVPRASVPDGFLSELTQQLAQATGKPPQYIAVHVVPDQLMAFGGSSEPCALCSLHSIGKIGGAQNRSYSKLLCGLLAERLRISPDRVYINYCDMNAANVGWNNSTFA
notes: untagged; Made by site-directed mutagenesis of the WT MIF cDNA in pET-11b (construct from Pantouris et al., 2018); also called Y99C variant; homotrimeric Y99C MIF; source: E. coli BL21-Gold (DE3), pET-11b, purified (Q-Sepharose and SP flow-through, Superdex 75)
  stoichiometry N: 3
